Data as given in the supplement of paper PMC9112550, “Optimization of the antimicrobial peptide Bac7 by deep mutational scanning” (BMC Biology, 2022).

Test system: Escherichia coli TOP10
Assay: shrunken log2 fold change of peptide-encoding DNA abundance (4.5 h post-induction vs induction); higher = less antimicrobial activity (less host growth inhibition)
Details: time post-induction: 4.5 h; library: site-saturation at positions 5, 18, 19, 20
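Also: peptides expressed intracellularly from a pBAD plasmid library in pooled LB shake-flask culture, induced with 0.3% L-arabinose, DNA abundance read by NGS, three biological replicates, DESeq2 with apeglm shrinkage.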

Row | Sequence | shrunken log2 fold change
1 | RRIRARPPRLPRPRPRPIWGPRP | 0.302
2 | RRIRKRPPRLPRPRPRPHWAPRP | 0.118
3 | RRIRGRPPRLPRPRPRPDKDPRP | 0.602
4 | RRIRSRPPRLPRPRPRPLYSPRP | -0.442
5 | RRIRERPPRLPRPRPRPRNGPRP | 0.0197
6 | RRIRSRPPRLPRPRPRPSHEPRP | 0.0867
7 | RRIRDRPPRLPRPRPRPYTLPRP | -0.153
8 | RRIRCRPPRLPRPRPRPGFIPRP | 0.067
9 | RRIRYRPPRLPRPRPRPSISPRP | -0.601
10 | RRIRWRPPRLPRPRPRPPEHPRP | 0.544
11 | RRIRHRPPRLPRPRPRPRPDPRP | 0.179
12 | RRIRPRPPRLPRPRPRPQMDPRP | -0.395
13 | RRIRTRPPRLPRPRPRPKKGPRP | -0.0611
14 | RRIRWRPPRLPRPRPRPYHDPRP | -0.868
15 | RRIRCRPPRLPRPRPRPQKQPRP | 0.0183
16 | RRIRKRPPRLPRPRPRPASHPRP | 0.442
17 | RRIRWRPPRLPRPRPRPMAGPRP | 0.0179
18 | RRIRERPPRLPRPRPRPMHFPRP | -0.163
19 | RRIRCRPPRLPRPRPRPELPPRP | 0.762
20 | RRIRYRPPRLPRPRPRPMKFPRP | -0.0276
21 | RRIRQRPPRLPRPRPRPSSAPRP | 2.99
22 | RRIRGRPPRLPRPRPRPYFFPRP | 0.0463
23 | RRIRKRPPRLPRPRPRPPDMPRP | 0.469
24 | RRIRPRPPRLPRPRPRPYRIPRP | -0.384
25 | RRIRDRPPRLPRPRPRPCTYPRP | -0.0116

Row | Sequence | shrunken log2 fold change
26 | RRIRGRPPRLPRPRPRPQYQPRP | -0.191
27 | RRIRPRPPRLPRPRPRPGHIPRP | -0.196
28 | RRIRQRPPRLPRPRPRPSCSPRP | -0.111
29 | RRIRVRPPRLPRPRPRPKDIPRP | -0.642
30 | RRIRNRPPRLPRPRPRPPFRPRP | 0.153
31 | RRIRNRPPRLPRPRPRPKMDPRP | 0.0178
32 | RRIRQRPPRLPRPRPRPYEAPRP | -0.0514
33 | RRIRTRPPRLPRPRPRPLFAPRP | 0.228
34 | RRIRERPPRLPRPRPRPVDQPRP | 0.0107
35 | RRIRYRPPRLPRPRPRPLDDPRP | -0.115
36 | RRIRNRPPRLPRPRPRPCNFPRP | -0.0737
37 | RRIRDRPPRLPRPRPRPGSWPRP | 0.817
38 | RRIRGRPPRLPRPRPRPSDKPRP | 0.0485
39 | RRIRRRPPRLPRPRPRPHCVPRP | -0.0665
40 | RRIRVRPPRLPRPRPRPCRKPRP | 0.068
41 | RRIRYRPPRLPRPRPRPMDMPRP | -0.00926
42 | RRIRGRPPRLPRPRPRPPNAPRP | 1.35
43 | RRIRQRPPRLPRPRPRPKFFPRP | -0.0285
44 | RRIRCRPPRLPRPRPRPQSRPRP | -0.016
45 | RRIRHRPPRLPRPRPRPGQNPRP | -0.226
46 | RRIRMRPPRLPRPRPRPKKFPRP | 0.358
47 | RRIRPRPPRLPRPRPRPTQWPRP | 0.248
48 | RRIRSRPPRLPRPRPRPVPIPRP | 0.129
49 | RRIRGRPPRLPRPRPRPTWQPRP | 0.731
50 | RRIRLRPPRLPRPRPRPVGHPRP | 0.306

Row | Sequence | shrunken log2 fold change
51 | RRIRSRPPRLPRPRPRPALSPRP | 0.497
52 | RRIRLRPPRLPRPRPRPGRSPRP | 0.326
53 | RRIRERPPRLPRPRPRPKWSPRP | -0.146
54 | RRIRARPPRLPRPRPRPFSIPRP | 0.111
55 | RRIRDRPPRLPRPRPRPVGTPRP | -0.0472
56 | RRIRERPPRLPRPRPRPKIWPRP | 0.0407
57 | RRIRCRPPRLPRPRPRPQGLPRP | 0.161
58 | RRIRVRPPRLPRPRPRPWMQPRP | -0.106
59 | RRIRMRPPRLPRPRPRPLDIPRP | -0.0561
60 | RRIRPRPPRLPRPRPRPWNWPRP | 0.3
61 | RRIRPRPPRLPRPRPRPIANPRP | -0.12
62 | RRIRLRPPRLPRPRPRPKAGPRP | 0.221
63 | RRIRCRPPRLPRPRPRPNLCPRP | -0.427
64 | RRIRGRPPRLPRPRPRPQARPRP | 0.3
65 | RRIRVRPPRLPRPRPRPMQYPRP | -0.324
66 | RRIRQRPPRLPRPRPRPEITPRP | 0.0276
67 | RRIRIRPPRLPRPRPRPYTYPRP | -0.705
68 | RRIRRRPPRLPRPRPRPMRMPRP | 0.119
69 | RRIRSRPPRLPRPRPRPGSLPRP | -0.0216
70 | RRIRSRPPRLPRPRPRPGGMPRP | 0.446
71 | RRIRERPPRLPRPRPRPDMVPRP | 0.0162
72 | RRIRWRPPRLPRPRPRPCNVPRP | -0.00213
73 | RRIRHRPPRLPRPRPRPESEPRP | -0.00193
74 | RRIRVRPPRLPRPRPRPWASPRP | 0.0586
75 | RRIRRRPPRLPRPRPRPSECPRP | -0.039

Row | Sequence | shrunken log2 fold change
76 | RRIRPRPPRLPRPRPRPLRDPRP | 0.522
77 | RRIRWRPPRLPRPRPRPKTDPRP | 0.204
78 | RRIRERPPRLPRPRPRPFKRPRP | 0.0596
79 | RRIRKRPPRLPRPRPRPDRIPRP | -0.00844
80 | RRIRYRPPRLPRPRPRPCMAPRP | -0.117
81 | RRIRVRPPRLPRPRPRPLFTPRP | -0.448
82 | RRIRCRPPRLPRPRPRPWCYPRP | -0.831
83 | RRIRDRPPRLPRPRPRPNSRPRP | -0.0447
84 | RRIRERPPRLPRPRPRPTKLPRP | -0.0612
85 | RRIRMRPPRLPRPRPRPQCIPRP | 0.0157
86 | RRIRLRPPRLPRPRPRPQTEPRP | -0.0579
87 | RRIRFRPPRLPRPRPRPMWRPRP | -0.0033
88 | RRIRRRPPRLPRPRPRPYWNPRP | -0.368
89 | RRIRLRPPRLPRPRPRPWRQPRP | -0.121
90 | RRIRYRPPRLPRPRPRPEFKPRP | 0.0136
91 | RRIRCRPPRLPRPRPRPICIPRP | -0.191
92 | RRIRRRPPRLPRPRPRPPKFPRP | 0.298
93 | RRIRKRPPRLPRPRPRPWAQPRP | 0.315
94 | RRIRHRPPRLPRPRPRPGYVPRP | -0.211
95 | RRIRTRPPRLPRPRPRPPDEPRP | 0.0184
96 | RRIRHRPPRLPRPRPRPFSYPRP | -0.28
97 | RRIRTRPPRLPRPRPRPNHWPRP | 0.0032
98 | RRIRYRPPRLPRPRPRPIMRPRP | 0.0675
99 | RRIRDRPPRLPRPRPRPHRHPRP | -0.00955
100 | RRIRFRPPRLPRPRPRPWIEPRP | -0.224

Row | Sequence | shrunken log2 fold change
101 | RRIRYRPPRLPRPRPRPLRGPRP | 0.561
102 | RRIRHRPPRLPRPRPRPMIVPRP | 0.0837
103 | RRIRNRPPRLPRPRPRPGEPPRP | 0.033
104 | RRIRARPPRLPRPRPRPYTVPRP | -0.306
105 | RRIRIRPPRLPRPRPRPTVPPRP | 0.185
106 | RRIRSRPPRLPRPRPRPGDWPRP | 0.223
107 | RRIRTRPPRLPRPRPRPVEWPRP | 0.168
108 | RRIRDRPPRLPRPRPRPIITPRP | -0.0771
109 | RRIRQRPPRLPRPRPRPWTFPRP | -0.0125
110 | RRIRIRPPRLPRPRPRPLGYPRP | -0.303
111 | RRIRARPPRLPRPRPRPSTDPRP | 1.08
112 | RRIRHRPPRLPRPRPRPNKKPRP | -0.0825
113 | RRIRNRPPRLPRPRPRPVASPRP | -0.0843
114 | RRIRCRPPRLPRPRPRPNPIPRP | -0.423
115 | RRIRCRPPRLPRPRPRPEYAPRP | 0.204
116 | RRIRVRPPRLPRPRPRPVFIPRP | -0.144
117 | RRIRYRPPRLPRPRPRPSPYPRP | -0.709
118 | RRIRDRPPRLPRPRPRPGHGPRP | -0.0236
119 | RRIRKRPPRLPRPRPRPMHNPRP | -0.136
120 | RRIRGRPPRLPRPRPRPQAKPRP | 1.34
121 | RRIRMRPPRLPRPRPRPLLFPRP | 0.908
122 | RRIRYRPPRLPRPRPRPLLWPRP | -0.246
123 | RRIRIRPPRLPRPRPRPNPFPRP | -0.502
124 | RRIRKRPPRLPRPRPRPLTFPRP | 0.299
125 | RRIRDRPPRLPRPRPRPMIIPRP | 0.248

Row | Sequence | shrunken log2 fold change
126 | RRIRVRPPRLPRPRPRPFIMPRP | -0.084
127 | RRIRHRPPRLPRPRPRPCRQPRP | -0.035
128 | RRIRTRPPRLPRPRPRPYPQPRP | -0.14
129 | RRIRNRPPRLPRPRPRPQFWPRP | 0.0339
130 | RRIRWRPPRLPRPRPRPRGKPRP | 0.227
131 | RRIRQRPPRLPRPRPRPLHWPRP | 0.0127
132 | RRIRDRPPRLPRPRPRPDHPPRP | -0.76
133 | RRIRPRPPRLPRPRPRPFFTPRP | -0.117
134 | RRIRDRPPRLPRPRPRPYTRPRP | -0.0984
135 | RRIRVRPPRLPRPRPRPLCVPRP | 1.22
136 | RRIRGRPPRLPRPRPRPKYYPRP | 0.0864
137 | RRIRERPPRLPRPRPRPMMDPRP | -0.0298
138 | RRIRCRPPRLPRPRPRPGMHPRP | -0.0345
139 | RRIRIRPPRLPRPRPRPIHKPRP | -0.782
140 | RRIRNRPPRLPRPRPRPPEPPRP | 0.184
141 | RRIRMRPPRLPRPRPRPNYYPRP | -0.576
142 | RRIRKRPPRLPRPRPRPKCEPRP | 0.848
143 | RRIRHRPPRLPRPRPRPKLAPRP | -0.0576
144 | RRIRERPPRLPRPRPRPVIYPRP | -0.248
145 | RRIRQRPPRLPRPRPRPIYAPRP | -0.222
146 | RRIRERPPRLPRPRPRPPKRPRP | 0.259
147 | RRIRVRPPRLPRPRPRPISNPRP | -0.512
148 | RRIRARPPRLPRPRPRPNGQPRP | 0.208
149 | RRIRMRPPRLPRPRPRPYILPRP | -1.08
150 | RRIRQRPPRLPRPRPRPYPAPRP | -0.289
